System: Escherichia coli TOP10
Assay: shrunken log2 fold change of peptide-encoding DNA abundance (4.5 h post-induction vs induction); higher = less antimicrobial activity (less host growth inhibition)
Details: time post-induction: 4.5 h; library: site-saturation at positions 5, 18, 19, 20
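Further: peptides expressed intracellularly from a pBAD plasmid library in pooled LB shake-flask culture, induced with 0.3% L-arabinose, DNA abundance read by NGS, three biological replicates, DESeq2 with apeglm shrinkage.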

Sequence: RRIRRRPPRLPRPRPRPGKIPRP
- shrunken log2 fold change: 0.343

Sequence: RRIRNRPPRLPRPRPRPLMGPRP
- shrunken log2 fold change: -0.254

Sequence: RRIRDRPPRLPRPRPRPMYNPRP
- shrunken log2 fold change: -0.354

Sequence: RRIRSRPPRLPRPRPRPPVHPRP
- shrunken log2 fold change: 0.0185

Sequence: RRIRFRPPRLPRPRPRPPVDPRP
- shrunken log2 fold change: 0.41

Sequence: RRIRRRPPRLPRPRPRPKGGPRP
- shrunken log2 fold change: 0.183

Sequence: RRIRSRPPRLPRPRPRPGCRPRP
- shrunken log2 fold change: 0.293

Sequence: RRIRNRPPRLPRPRPRPICTPRP
- shrunken log2 fold change: -0.122

Sequence: RRIRSRPPRLPRPRPRPNWGPRP
- shrunken log2 fold change: -0.0911

Sequence: RRIRIRPPRLPRPRPRPGYVPRP
- shrunken log2 fold change: -0.181

Sequence: RRIRIRPPRLPRPRPRPESFPRP
- shrunken log2 fold change: -0.0048

Sequence: RRIRFRPPRLPRPRPRPDHQPRP
- shrunken log2 fold change: -0.147

Sequence: RRIRERPPRLPRPRPRPLFQPRP
- shrunken log2 fold change: -0.271

Sequence: RRIRCRPPRLPRPRPRPLVKPRP
- shrunken log2 fold change: -0.0116

Sequence: RRIRHRPPRLPRPRPRPQYLPRP
- shrunken log2 fold change: 0.00943

Sequence: RRIRTRPPRLPRPRPRPRYKPRP
- shrunken log2 fold change: -0.909

Sequence: RRIRSRPPRLPRPRPRPVPLPRP
- shrunken log2 fold change: -0.0843

Sequence: RRIRSRPPRLPRPRPRPDQLPRP
- shrunken log2 fold change: -0.167

Sequence: RRIRYRPPRLPRPRPRPRWLPRP
- shrunken log2 fold change: -0.109

Sequence: RRIRSRPPRLPRPRPRPCCHPRP
- shrunken log2 fold change: -0.0953

Sequence: RRIRFRPPRLPRPRPRPANQPRP
- shrunken log2 fold change: -0.165

Sequence: RRIRCRPPRLPRPRPRPKATPRP
- shrunken log2 fold change: 0.0985

Sequence: RRIRRRPPRLPRPRPRPPMNPRP
- shrunken log2 fold change: 0.172

Sequence: RRIRWRPPRLPRPRPRPNLNPRP
- shrunken log2 fold change: -0.401

Sequence: RRIRCRPPRLPRPRPRPHHEPRP
- shrunken log2 fold change: -0.24

Sequence: RRIRERPPRLPRPRPRPAQVPRP
- shrunken log2 fold change: -0.149

Sequence: RRIRGRPPRLPRPRPRPCAEPRP
- shrunken log2 fold change: 1.91

Sequence: RRIRYRPPRLPRPRPRPDEKPRP
- shrunken log2 fold change: -0.102

Sequence: RRIRFRPPRLPRPRPRPARMPRP
- shrunken log2 fold change: 0.296

Sequence: RRIRERPPRLPRPRPRPMDWPRP
- shrunken log2 fold change: 0.0151

Sequence: RRIRIRPPRLPRPRPRPSHFPRP
- shrunken log2 fold change: -0.641

Sequence: RRIRTRPPRLPRPRPRPHKAPRP
- shrunken log2 fold change: -0.0306

Sequence: RRIRWRPPRLPRPRPRPRKHPRP
- shrunken log2 fold change: 0.15

Sequence: RRIRTRPPRLPRPRPRPRRNPRP
- shrunken log2 fold change: 0.125

Sequence: RRIRCRPPRLPRPRPRPIISPRP
- shrunken log2 fold change: -0.346

Sequence: RRIRDRPPRLPRPRPRPRACPRP
- shrunken log2 fold change: 0.389

Sequence: RRIRDRPPRLPRPRPRPDLLPRP
- shrunken log2 fold change: 0.106

Sequence: RRIRWRPPRLPRPRPRPGLDPRP
- shrunken log2 fold change: 0.601

Sequence: RRIRARPPRLPRPRPRPFWVPRP
- shrunken log2 fold change: -0.0841

Sequence: RRIRTRPPRLPRPRPRPYKTPRP
- shrunken log2 fold change: -0.315

Sequence: RRIRKRPPRLPRPRPRPWYMPRP
- shrunken log2 fold change: -0.158

Sequence: RRIRVRPPRLPRPRPRPFMTPRP
- shrunken log2 fold change: 0.127

Sequence: RRIRRRPPRLPRPRPRPDWFPRP
- shrunken log2 fold change: 0.276

Sequence: RRIRKRPPRLPRPRPRPWCKPRP
- shrunken log2 fold change: -0.188

Sequence: RRIRSRPPRLPRPRPRPIPAPRP
- shrunken log2 fold change: -0.286

Sequence: RRIRGRPPRLPRPRPRPEMEPRP
- shrunken log2 fold change: -0.0341

Sequence: RRIRWRPPRLPRPRPRPKEAPRP
- shrunken log2 fold change: 0.111

Sequence: RRIRQRPPRLPRPRPRPPEVPRP
- shrunken log2 fold change: 0.0121

Sequence: RRIRSRPPRLPRPRPRPRQSPRP
- shrunken log2 fold change: 0.113

Sequence: RRIRYRPPRLPRPRPRPFRLPRP
- shrunken log2 fold change: -0.0183

Sequence: RRIRRRPPRLPRPRPRPSSFPRP
- shrunken log2 fold change: -0.0626

Sequence: RRIRGRPPRLPRPRPRPKVRPRP
- shrunken log2 fold change: 0.105

Sequence: RRIRNRPPRLPRPRPRPKQSPRP
- shrunken log2 fold change: -0.135

Sequence: RRIRIRPPRLPRPRPRPMRNPRP
- shrunken log2 fold change: 0.167

Sequence: RRIRPRPPRLPRPRPRPGTGPRP
- shrunken log2 fold change: -0.0651

Sequence: RRIRWRPPRLPRPRPRPARLPRP
- shrunken log2 fold change: 0.523

Sequence: RRIRYRPPRLPRPRPRPEIKPRP
- shrunken log2 fold change: -0.114

Sequence: RRIRKRPPRLPRPRPRPPICPRP
- shrunken log2 fold change: 0.684

Sequence: RRIRGRPPRLPRPRPRPTIKPRP
- shrunken log2 fold change: 0.48

Sequence: RRIRTRPPRLPRPRPRPKKFPRP
- shrunken log2 fold change: -0.403

— the supplement of paper PMC9112550, “Optimization of the antimicrobial peptide Bac7 by deep mutational scanning” (BMC Biology, 2022)
